Data: patent publication US20020115167A1 (published 2002)

Assays:
[1] = biological target: T1, Dishevelled (Dsh) protein, Drosophila (Drosophila, UniProt P51140 1-623, progressively phosphorylated during development (sites not given)); test: immunoprecipitation of Dsh from Drosophila embryos, in vitro kinase assay; the kinase was eluted with 700 mM NaCl
T1 construct: also called endogenous Dsh
T1 sequence (looked up): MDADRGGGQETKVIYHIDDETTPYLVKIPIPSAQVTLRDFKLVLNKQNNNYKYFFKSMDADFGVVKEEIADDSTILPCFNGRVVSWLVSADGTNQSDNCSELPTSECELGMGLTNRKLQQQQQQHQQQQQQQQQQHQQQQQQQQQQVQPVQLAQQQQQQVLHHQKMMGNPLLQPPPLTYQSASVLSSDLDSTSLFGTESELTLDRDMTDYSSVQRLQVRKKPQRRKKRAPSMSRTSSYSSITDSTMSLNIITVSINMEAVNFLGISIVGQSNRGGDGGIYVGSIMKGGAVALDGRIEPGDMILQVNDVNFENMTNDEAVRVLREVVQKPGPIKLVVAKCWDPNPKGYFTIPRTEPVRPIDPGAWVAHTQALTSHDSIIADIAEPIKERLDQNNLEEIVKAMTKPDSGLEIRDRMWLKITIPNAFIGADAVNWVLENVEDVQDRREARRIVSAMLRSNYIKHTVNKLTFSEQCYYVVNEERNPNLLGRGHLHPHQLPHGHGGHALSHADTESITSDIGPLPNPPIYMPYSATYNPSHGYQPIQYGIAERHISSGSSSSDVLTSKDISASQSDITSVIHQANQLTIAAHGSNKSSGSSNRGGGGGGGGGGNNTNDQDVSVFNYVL
Experimental: To clone the Dsh-associated kinase, Dsh was immunoprecipitated from Drosophila embryos with preimmune and affinity-purified immune serum, and subjected to an in vitro kinase assay or blotted with anti-Dsh serum. Dsh immunoprecipitates were washed with 700 mM NaCl to elute the associated kinase. The eluted kinase was recovered after dilution by precipitation with GST-fusion proteins. The kinase was purified 60,000-fold from Drosophila embryos and several peptide sequences were then used to clone the cDNA of this kinase. After screening a Drosophila embryo cDNA library with oligo probes designed based on peptide sequences, the cDNA that encodes the kinase was cloned. The cDNA clones encode a protein kinase that is homologous to the C. elegans protein PAR-1 (85% identity in the kinase domain and 42% identity overall). […] Importantly, the kinase activity that was precipitated using GST-DM increased as Dsh became progressively phosphorylated during development. The kinase activity was also present in Dsh immunoprecipitates.
(§1) To perform the kinase assay, the embryos or cells were lysed in lysis buffer (50 mM HEPES [pH 7.6], 100 mM NaCl, 0.5% Nonidet P-40, 10 mM NaF, 5 mM NaPPi, 1.5 mM MgCl₂, 1 mM EGTA, 10% glycerol, and protease inhibitors). Cleared cell lysates were incubated with GST fusion proteins immobilized on glutathione agarose beads for two to four hours at 4° C. […]

[2] = biological target: T2, GST-fusion protein containing the N-terminal domain of Dsh (Drosophila, UniProt P51140 1-166); test: GST-fusion pull-down from Drosophila embryo lysates, in vitro kinase assay
T2 construct: domain: N-terminal; not shown: glutathione-S-transferase (GST) fusion partner
T2 sequence (looked up): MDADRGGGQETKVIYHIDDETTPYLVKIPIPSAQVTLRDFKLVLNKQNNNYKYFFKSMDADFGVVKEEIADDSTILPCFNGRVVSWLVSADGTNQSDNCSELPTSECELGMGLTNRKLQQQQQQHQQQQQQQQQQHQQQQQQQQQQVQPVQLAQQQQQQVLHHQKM
Experimental: (§2) Dsh is known to be progressively phosphorylated in Drosophila during the stages of embryonic development known to require Wnt. The stoichiometry of this phosphorylation is high and supports the importance of this reaction. To identify the kinase that phosphorylates Dsh, various regions of Dsh were tested for their ability to physically interact with this kinase. Equal amounts of lysates prepared from staged Drosophila embryos were blotted with anti-Dsh antibody. Only the GST-fusion protein containing the middle (DM), but not the N-terminal or C-terminal domain of Dsh, interacted with this kinase activity from Drosophila embryos. The Dsh- associated kinase activity, which was precipitated with GST-DM, increased as Dsh became progressively phosphoylated during development.
as §1, with “C. The glutathione beads were washed three times with lysis buffer and once with kinase buffer (50 mM Tris [pH7.6], 10 mM MgCl₂).” for “C.”

[3] = biological target: T3, GST-fusion protein containing the C-terminal domain of Dsh (Drosophila, UniProt P51140 395-623); test: as above
T3 construct: domain: C-terminal; not shown: glutathione-S-transferase (GST) fusion partner
T3 sequence (looked up): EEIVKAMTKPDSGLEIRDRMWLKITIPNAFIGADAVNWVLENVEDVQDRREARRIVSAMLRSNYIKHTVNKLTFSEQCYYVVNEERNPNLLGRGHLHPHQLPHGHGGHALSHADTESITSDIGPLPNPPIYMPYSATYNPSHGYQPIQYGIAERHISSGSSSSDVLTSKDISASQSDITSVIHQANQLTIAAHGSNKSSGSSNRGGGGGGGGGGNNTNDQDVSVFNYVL
Experimental: as §2
as §1, with “C. The glutathione beads were washed three times with lysis buffer and once with kinase buffer (50 mM Tris [pH7.6], 10 mM MgCl₂).” for “C.”

binding result [1]: binds
binding result [2]: no binding
binding result [3]: no binding
B1: Drosophila PAR-1 (dPAR-1), the Dishevelled-associated kinase (enzyme)
chain: MSTAMRTTLQSVPEALPADSVSNGTASNVAAPAAPVSSATNAVPPLAAVSSTTATYATNSISTSSHSVKDQQQQQQQQQHDSANANIVSLPPTTTPVANTNTMMPIVTSSNSATSNSTAATPTPASGAAATGGVGSVSQGPATVSASAANTNHSHQHSHQHHHHVANNMTTDGARLSSNNSAVVASSAINHHHHHTPGSGVAPTVNKNVLSTHSAHPSAIKQRTSSAKGSPNMQMRSSAPMRWRATEEHIGKYKLIKTIGKGNFAKVKLAKHLPTGKEVAIKIIDKTQLNPGSLQKLFREVRIMKMLDHPNIVKLFQVIETEKTLYLIMEYASGGEVFDYLVLHGRMKEKEARVKFRQIVSAVQYCHQKRIIHRDLKAENLLLDSELNIKIADFGFSNEFTPGSKLDTFCGSPPYAAPELFQGKKYDGPEVDVWSLGVILYTLVSGSLPFDGSTLRELRERVLRGKYRIPFYMSTDCENLLRKFLVLNPAKRASLETIMGDKWMNMGFEEDELKPYIEPKADLADPKRIEALVAMGYNRSEIEASLSQVRYDDVFATYLLLGRKSTDPESDGSRSGSSLSLRNISGNDAGANAGSASVQSPTHRGVHRSISASSTKPSRRASSGAETLRVGPTNAAATVAAATGAVGAVNPSNNYNAAGSAADRASVGSNFKRQNTIDSATIKENTARLAAQNQRPASATQKMLTTADTTLNSPAKPRTATKYDPTNGNRTVSGTSGIIPRRSTTLYEKTSSTEKTNVIPAETKMASAVKSSRHFPRNVPSRSTFHSGQTRARNNTALEYSGTSGASGDSSHPGRMSFFSKLSSRFSKRPNQ
notes: Endogenous kinase from Drosophila embryo or Clone-8 cell lysates; In-gel bands of 110 kDa, 64 kDa and 130 kDa (minor) are said to be the kinase and its major fragment; also called Dsh-associated kinase; the kinase
